Test results from the supplement of paper PMC9112550, “Optimization of the antimicrobial peptide Bac7 by deep mutational scanning” (BMC Biology, 2022).
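Also: peptides expressed intracellularly from a pBAD plasmid library in pooled LB shake-flask culture, induced with 0.3% L-arabinose, DNA abundance read by NGS, three biological replicates, DESeq2 with apeglm shrinkage.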

What follows are sequences tested on Escherichia coli TOP10 (assay: shrunken log2 fold change of peptide-encoding DNA abundance (4.5 h post-induction vs induction); higher = less antimicrobial activity (less host growth inhibition)). Conditions: time post-induction: 4.5 h; library: site-saturation at positions 5, 18, 19, 20.
With RRIRTRPPRLPRPRPRPLFHPRP the “shrunken log2 fold change” value was -0.193.
With RRIRTRPPRLPRPRPRPLFNPRP the “shrunken log2 fold change” value was -0.692.
With RRIRTRPPRLPRPRPRPLFSPRP the “shrunken log2 fold change” value was -0.717.
RRIRTRPPRLPRPRPRPLFVPRP was tested, and the “shrunken log2 fold change” value was -0.382.
For RRIRTRPPRLPRPRPRPLGIPRP, the “shrunken log2 fold change” value was -0.638.
For RRIRTRPPRLPRPRPRPLGWPRP, the “shrunken log2 fold change” value was 0.811.
For RRIRTRPPRLPRPRPRPLHDPRP, the “shrunken log2 fold change” value was -0.21.
RRIRTRPPRLPRPRPRPLHQPRP was tested, and the “shrunken log2 fold change” value was 0.0302.
With RRIRTRPPRLPRPRPRPLHTPRP the “shrunken log2 fold change” value was -0.161.
In the case of RRIRTRPPRLPRPRPRPLITPRP, the “shrunken log2 fold change” value is reported as -0.489.
RRIRTRPPRLPRPRPRPLLCPRP was tested, and the “shrunken log2 fold change” value was -0.413.
With RRIRTRPPRLPRPRPRPLLIPRP the “shrunken log2 fold change” value was -0.0383.
RRIRTRPPRLPRPRPRPLLKPRP was tested, and the “shrunken log2 fold change” value was -0.336.
In the case of RRIRTRPPRLPRPRPRPLMDPRP, the “shrunken log2 fold change” value is reported as -0.0405.
RRIRTRPPRLPRPRPRPLMYPRP was tested, and the “shrunken log2 fold change” value was -0.736.
With RRIRTRPPRLPRPRPRPLQAPRP the “shrunken log2 fold change” value was 0.00547.
With RRIRTRPPRLPRPRPRPLQHPRP the “shrunken log2 fold change” value was -0.257.
In the case of RRIRTRPPRLPRPRPRPLQKPRP, the “shrunken log2 fold change” value is reported as -0.134.
For RRIRTRPPRLPRPRPRPLTRPRP, the “shrunken log2 fold change” value was 0.252.
RRIRTRPPRLPRPRPRPLVQPRP was tested, and the “shrunken log2 fold change” value was 0.149.
RRIRTRPPRLPRPRPRPLWCPRP was tested, and the “shrunken log2 fold change” value was -0.0967.
In the case of RRIRTRPPRLPRPRPRPLWWPRP, the “shrunken log2 fold change” value is reported as 0.546.
For RRIRTRPPRLPRPRPRPLYMPRP, the “shrunken log2 fold change” value was -0.859.
For RRIRTRPPRLPRPRPRPLYYPRP, the “shrunken log2 fold change” value was -0.771.
RRIRTRPPRLPRPRPRPMAEPRP was tested, and the “shrunken log2 fold change” value was 0.117.
RRIRTRPPRLPRPRPRPMAWPRP was tested, and the “shrunken log2 fold change” value was 0.114.
In the case of RRIRTRPPRLPRPRPRPMEHPRP, the “shrunken log2 fold change” value is reported as 0.118.
RRIRTRPPRLPRPRPRPMGMPRP was tested, and the “shrunken log2 fold change” value was -0.12.
With RRIRTRPPRLPRPRPRPMIDPRP the “shrunken log2 fold change” value was -0.246.
In the case of RRIRTRPPRLPRPRPRPMIEPRP, the “shrunken log2 fold change” value is reported as -0.244.
For RRIRTRPPRLPRPRPRPMIVPRP, the “shrunken log2 fold change” value was -0.158.
In the case of RRIRTRPPRLPRPRPRPMKFPRP, the “shrunken log2 fold change” value is reported as -0.116.
In the case of RRIRTRPPRLPRPRPRPMKHPRP, the “shrunken log2 fold change” value is reported as -0.00108.
For RRIRTRPPRLPRPRPRPMLAPRP, the “shrunken log2 fold change” value was 0.306.
With RRIRTRPPRLPRPRPRPMLNPRP the “shrunken log2 fold change” value was -0.253.
With RRIRTRPPRLPRPRPRPMNLPRP the “shrunken log2 fold change” value was -0.348.
RRIRTRPPRLPRPRPRPMPKPRP was tested, and the “shrunken log2 fold change” value was 0.116.
For RRIRTRPPRLPRPRPRPMPVPRP, the “shrunken log2 fold change” value was 0.0572.
RRIRTRPPRLPRPRPRPMSRPRP was tested, and the “shrunken log2 fold change” value was -0.361.
With RRIRTRPPRLPRPRPRPMSVPRP the “shrunken log2 fold change” value was -0.00965.
In the case of RRIRTRPPRLPRPRPRPMTTPRP, the “shrunken log2 fold change” value is reported as 0.000642.
In the case of RRIRTRPPRLPRPRPRPMYIPRP, the “shrunken log2 fold change” value is reported as -1.2.
In the case of RRIRTRPPRLPRPRPRPMYLPRP, the “shrunken log2 fold change” value is reported as -0.518.
RRIRTRPPRLPRPRPRPNCRPRP was tested, and the “shrunken log2 fold change” value was -0.00739.
For RRIRTRPPRLPRPRPRPNCSPRP, the “shrunken log2 fold change” value was -0.435.
RRIRTRPPRLPRPRPRPNELPRP was tested, and the “shrunken log2 fold change” value was -0.0115.
With RRIRTRPPRLPRPRPRPNFAPRP the “shrunken log2 fold change” value was 0.00158.
In the case of RRIRTRPPRLPRPRPRPNFIPRP, the “shrunken log2 fold change” value is reported as -0.457.
For RRIRTRPPRLPRPRPRPNFMPRP, the “shrunken log2 fold change” value was -0.401.
With RRIRTRPPRLPRPRPRPNGAPRP the “shrunken log2 fold change” value was -0.0908.
RRIRTRPPRLPRPRPRPNGFPRP was tested, and the “shrunken log2 fold change” value was -0.0646.
For RRIRTRPPRLPRPRPRPNGTPRP, the “shrunken log2 fold change” value was -0.402.
RRIRTRPPRLPRPRPRPNIAPRP was tested, and the “shrunken log2 fold change” value was -0.239.
RRIRTRPPRLPRPRPRPNKRPRP was tested, and the “shrunken log2 fold change” value was -0.265.
For RRIRTRPPRLPRPRPRPNKYPRP, the “shrunken log2 fold change” value was -0.76.
In the case of RRIRTRPPRLPRPRPRPNLHPRP, the “shrunken log2 fold change” value is reported as -0.725.
For RRIRTRPPRLPRPRPRPNLNPRP, the “shrunken log2 fold change” value was -0.55.
In the case of RRIRTRPPRLPRPRPRPNLTPRP, the “shrunken log2 fold change” value is reported as -0.00355.
RRIRTRPPRLPRPRPRPNMHPRP was tested, and the “shrunken log2 fold change” value was 0.561.
For RRIRTRPPRLPRPRPRPNNEPRP, the “shrunken log2 fold change” value was -0.581.
With RRIRTRPPRLPRPRPRPNPCPRP the “shrunken log2 fold change” value was 0.0479.
For RRIRTRPPRLPRPRPRPNPRPRP, the “shrunken log2 fold change” value was 0.23.
For RRIRTRPPRLPRPRPRPNPYPRP, the “shrunken log2 fold change” value was -0.121.
RRIRTRPPRLPRPRPRPNSVPRP was tested, and the “shrunken log2 fold change” value was -0.0853.
For RRIRTRPPRLPRPRPRPNVMPRP, the “shrunken log2 fold change” value was 0.0814.
In the case of RRIRTRPPRLPRPRPRPNVSPRP, the “shrunken log2 fold change” value is reported as -0.0389.
With RRIRTRPPRLPRPRPRPNWSPRP the “shrunken log2 fold change” value was 0.0464.
RRIRTRPPRLPRPRPRPPAFPRP was tested, and the “shrunken log2 fold change” value was -0.216.
For RRIRTRPPRLPRPRPRPPDDPRP, the “shrunken log2 fold change” value was 0.408.
For RRIRTRPPRLPRPRPRPPDYPRP, the “shrunken log2 fold change” value was -0.0981.
With RRIRTRPPRLPRPRPRPPEQPRP the “shrunken log2 fold change” value was 0.151.
In the case of RRIRTRPPRLPRPRPRPPGDPRP, the “shrunken log2 fold change” value is reported as 0.189.
RRIRTRPPRLPRPRPRPPGFPRP was tested, and the “shrunken log2 fold change” value was 0.287.
RRIRTRPPRLPRPRPRPPHDPRP was tested, and the “shrunken log2 fold change” value was 0.275.
In the case of RRIRTRPPRLPRPRPRPPHIPRP, the “shrunken log2 fold change” value is reported as -0.471.
In the case of RRIRTRPPRLPRPRPRPPHNPRP, the “shrunken log2 fold change” value is reported as 0.0332.
For RRIRTRPPRLPRPRPRPPHPPRP, the “shrunken log2 fold change” value was 0.255.
For RRIRTRPPRLPRPRPRPPIVPRP, the “shrunken log2 fold change” value was -0.175.
With RRIRTRPPRLPRPRPRPPKGPRP the “shrunken log2 fold change” value was 0.107.
For RRIRTRPPRLPRPRPRPPKPPRP, the “shrunken log2 fold change” value was 0.304.
RRIRTRPPRLPRPRPRPPMLPRP was tested, and the “shrunken log2 fold change” value was 0.0279.
RRIRTRPPRLPRPRPRPPNIPRP was tested, and the “shrunken log2 fold change” value was -0.355.
RRIRTRPPRLPRPRPRPPNWPRP was tested, and the “shrunken log2 fold change” value was 0.845.
RRIRTRPPRLPRPRPRPPPMPRP was tested, and the “shrunken log2 fold change” value was 0.54.
RRIRTRPPRLPRPRPRPPPVPRP was tested, and the “shrunken log2 fold change” value was 0.652.
For RRIRTRPPRLPRPRPRPPQFPRP, the “shrunken log2 fold change” value was 0.11.
In the case of RRIRTRPPRLPRPRPRPPQSPRP, the “shrunken log2 fold change” value is reported as 0.441.
For RRIRTRPPRLPRPRPRPPQTPRP, the “shrunken log2 fold change” value was 0.457.
With RRIRTRPPRLPRPRPRPPREPRP the “shrunken log2 fold change” value was 0.141.
In the case of RRIRTRPPRLPRPRPRPPSLPRP, the “shrunken log2 fold change” value is reported as -0.11.
In the case of RRIRTRPPRLPRPRPRPPSRPRP, the “shrunken log2 fold change” value is reported as 0.191.
With RRIRTRPPRLPRPRPRPPTPPRP the “shrunken log2 fold change” value was 0.368.
In the case of RRIRTRPPRLPRPRPRPPTVPRP, the “shrunken log2 fold change” value is reported as 0.44.
For RRIRTRPPRLPRPRPRPPVSPRP, the “shrunken log2 fold change” value was 0.147.
For RRIRTRPPRLPRPRPRPPVWPRP, the “shrunken log2 fold change” value was 0.0152.
For RRIRTRPPRLPRPRPRPPWAPRP, the “shrunken log2 fold change” value was 0.613.
For RRIRTRPPRLPRPRPRPPYEPRP, the “shrunken log2 fold change” value was 0.0319.
RRIRTRPPRLPRPRPRPQAAPRP was tested, and the “shrunken log2 fold change” value was -0.0432.
With RRIRTRPPRLPRPRPRPQAFPRP the “shrunken log2 fold change” value was 0.0884.
RRIRTRPPRLPRPRPRPQCIPRP was tested, and the “shrunken log2 fold change” value was -0.247.
For RRIRTRPPRLPRPRPRPQCSPRP, the “shrunken log2 fold change” value was 0.0299.
In the case of RRIRTRPPRLPRPRPRPQEYPRP, the “shrunken log2 fold change” value is reported as -0.0331.
With RRIRTRPPRLPRPRPRPQFEPRP the “shrunken log2 fold change” value was 0.0219.
RRIRTRPPRLPRPRPRPQFHPRP was tested, and the “shrunken log2 fold change” value was -0.541.
With RRIRTRPPRLPRPRPRPQFYPRP the “shrunken log2 fold change” value was -0.791.
RRIRTRPPRLPRPRPRPQHPPRP was tested, and the “shrunken log2 fold change” value was 0.0586.
RRIRTRPPRLPRPRPRPQIAPRP was tested, and the “shrunken log2 fold change” value was -0.0663.
In the case of RRIRTRPPRLPRPRPRPQIGPRP, the “shrunken log2 fold change” value is reported as -0.0138.
RRIRTRPPRLPRPRPRPQIYPRP was tested, and the “shrunken log2 fold change” value was -0.179.
